Laboratory results: paper PMC1802081
Positions count from the first letter of the chain named. Names and notes keep the numbering of the source.

B1: BMPR-II receptor ectodomain (receptor)
chain: SQNQERLCAFKDPYQQDLGIGESRISHENGTILCSKGSTCYGLWEKSKGDINLVKQGCWSHIGDPQECHYEECVVTTTPPSIQNGTYRFCCCSTDLCNVNFTENFPPPDTTPLSPPHSFNRDET
B2: ActR-IIBECD wildtype (activin type IIB receptor ectodomain) (receptor)
chain: SGRGEAETRECIYYNANWELERTNQSGLERCEGEQDKRLHCYASWRNSSGTIELVKKGCWLDDFNCYDRQECVATEENPQVYFCCCEGNFCNERFTHLPEPGGPEVTYEPPPTAPTLLT
B3: ActR-IIBECD L61A (receptor)
chain: B2 chain with L61A
B4: ActR-IIBECD L61P (receptor)
chain: B2 chain with L61P

How the values were obtained:
Assay in all cases: SPR; BIACORE 2000; biotinylated ligand on a streptavidin-modified CM5 chip (about 200 RU); receptor ectodomain as analyte at 1, 2, 3, 5, 10, 20 and 50 uM; HBS500 (10 mM HEPES pH 7.4, 500 mM NaCl, 3.4 mM EDTA, 0.005% P20); apparent KD from the dose dependence of equilibrium binding
BMP-2 L100K = biological target: BMP-2 L100K
BMP-2 A86P = biological target: BMP-2 A86P
BMP-2 S85R/A86P = biological target: BMP-2 S85R/A86P
BMP-2 N102D = biological target: BMP-2 N102D
BMP-2 S85R = biological target: BMP-2 S85R
[1] = biological target: BMP-2 variant L100K/N102D

Binder	rel. KD (against wildtype BMP-2 from E. coli with the same receptor) (BMP-2 L100K) [fold]	rel. KD (against wildtype BMP-2 from E. coli with the same receptor) (BMP-2 A86P) [fold]	rel. KD (against wildtype BMP-2 from E. coli with the same receptor) (BMP-2 S85R/A86P) [fold]	rel. KD (against wildtype BMP-2 from E. coli with the same receptor) (BMP-2 N102D) [fold]	rel. KD (against wildtype BMP-2 from E. coli with the same receptor) (BMP-2 S85R) [fold]	rel. KD (against wildtype BMP-2 from E. coli with the same receptor) [1] [fold]	Kd [1] [µM]
B1	1.3	0.5	0.19	0.96	0.12	0.92	–
B2	0.15	2.6	1.4	7.8	1.3	–	0.14
B3	–	–	–	–	–	–	14
B4	–	–	–	–	–	–	160
